Data as given in the supplement of paper PMC9112550, “Optimization of the antimicrobial peptide Bac7 by deep mutational scanning” (BMC Biology, 2022).

Test system: Escherichia coli TOP10
Experiment: shrunken log2 fold change of peptide-encoding DNA abundance (4.5 h post-induction vs induction); higher = less antimicrobial activity (less host growth inhibition)
Conditions: time post-induction: 4.5 h; library: site-saturation at positions 5, 18, 19, 20
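Note: peptides expressed intracellularly from a pBAD plasmid library in pooled LB shake-flask culture, induced with 0.3% L-arabinose, DNA abundance read by NGS, three biological replicates, DESeq2 with apeglm shrinkage.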

Sequence	shrunken log2 fold change
RRIRCRPPRLPRPRPRPFGHPRP	0.0616
RRIRSRPPRLPRPRPRPADEPRP	0.246
RRIRGRPPRLPRPRPRPTFYPRP	0.264
RRIRYRPPRLPRPRPRPDNQPRP	-0.644
RRIRVRPPRLPRPRPRPTFMPRP	-0.0669
RRIRKRPPRLPRPRPRPKNHPRP	0.109
RRIRQRPPRLPRPRPRPLRNPRP	0.121
RRIRNRPPRLPRPRPRPKVYPRP	-0.406
RRIRMRPPRLPRPRPRPDNIPRP	-0.184
RRIRARPPRLPRPRPRPWSEPRP	0.0573
RRIRPRPPRLPRPRPRPCCVPRP	0.182
RRIRPRPPRLPRPRPRPDAKPRP	0.201
RRIRMRPPRLPRPRPRPGQSPRP	1.23
RRIRERPPRLPRPRPRPACRPRP	0.392
RRIRCRPPRLPRPRPRPWARPRP	-0.188
RRIRFRPPRLPRPRPRPWLDPRP	-0.0286
RRIRNRPPRLPRPRPRPDRPPRP	-0.151
RRIRSRPPRLPRPRPRPCQIPRP	-0.231
RRIRCRPPRLPRPRPRPEERPRP	-0.0298
RRIRDRPPRLPRPRPRPRNDPRP	-0.461
RRIRPRPPRLPRPRPRPGFMPRP	0.048
RRIRFRPPRLPRPRPRPMCAPRP	0.253
RRIRQRPPRLPRPRPRPDLFPRP	-0.0321
RRIRFRPPRLPRPRPRPKYFPRP	-0.758
RRIRPRPPRLPRPRPRPMGEPRP	-0.231

Sequence	shrunken log2 fold change
RRIRHRPPRLPRPRPRPLRQPRP	-0.0125
RRIRIRPPRLPRPRPRPIMSPRP	0.0262
RRIRCRPPRLPRPRPRPMCRPRP	-0.274
RRIRSRPPRLPRPRPRPKRRPRP	0.33
RRIRVRPPRLPRPRPRPVQYPRP	-0.0224
RRIRDRPPRLPRPRPRPMPDPRP	-0.00281
RRIRWRPPRLPRPRPRPKCGPRP	0.594
RRIRMRPPRLPRPRPRPSPNPRP	0.0416
RRIRKRPPRLPRPRPRPTSTPRP	0.489
RRIRARPPRLPRPRPRPCHFPRP	-0.0257
RRIRIRPPRLPRPRPRPFPHPRP	-0.174
RRIRMRPPRLPRPRPRPPGFPRP	0.619
RRIRARPPRLPRPRPRPQCIPRP	-0.125
RRIRMRPPRLPRPRPRPEFKPRP	0.335
RRIRTRPPRLPRPRPRPFCAPRP	-0.00433
RRIRHRPPRLPRPRPRPKLAPRP	-0.0576
RRIRHRPPRLPRPRPRPQDQPRP	0.0969
RRIRHRPPRLPRPRPRPFSYPRP	-0.28
RRIRGRPPRLPRPRPRPSCTPRP	0.565
RRIRTRPPRLPRPRPRPNPFPRP	-0.216
RRIRERPPRLPRPRPRPKHFPRP	-0.248
RRIRMRPPRLPRPRPRPWSRPRP	0.163
RRIRMRPPRLPRPRPRPMTMPRP	0.178
RRIRCRPPRLPRPRPRPCGQPRP	0.143
RRIRVRPPRLPRPRPRPCWMPRP	-0.46
